Assay results published in paper PMC3916842.

Columns and labels:
[1] = target: talin (human) (UniProt Q9Y490); test: TIRF microscopy of recruitment to a protein-micropatterned surface
[2] = target: talin (human) (UniProt Q9Y490); test: FRAP on a spinning disk confocal microscope
[3] = target: talin (human) (UniProt Q9Y490); test: FRAP on a TIRF microscope

- koff [1]: 0.0034 s⁻¹
- koff [2]: 0.0029 s⁻¹
- koff [3]: 0.0033 s⁻¹
Substance: EGFP-vinculin 1-851 (Vh) (from UniProt P18206 1-851) (domain or fragment)
